The nature of the data set: protein stability index of a GFP-peptide fusion (GPS, HEK-293T) (PSI 1-6); higher = more stable. The following applies: c terminus: a fixed tail appended.

± gives the standard deviation.
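Also: 24-mer peptide tiles fused after GFP, lentivirally expressed, FACS-sorted into six equal bins by GFP/DsRed ratio, decoded by Illumina sequencing, PSI is the read-weighted mean bin number.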

Regarding KCFSCNSNLHRHQRTHTGEKPYKC [ZNF263], the protein stability index is, setting by setting: (treatment: DMSO) 3.5 ± 0.1; (treatment: MLN4924 1 uM, 8 h) 3.45 ± 0.15.
The like results for KCGSGARGGDGEVASAPLQPPVPS [TRADD] were, in that order, 4.79 ± 0.24 and 4.78 ± 0.36.
With KDLVMYSKCQRLFRSPSMPCSVIR [CDC25B], the protein stability index (treatment: DMSO) was 2.2 ± 0.18 and the protein stability index (treatment: MLN4924 1 uM, 8 h) was 2.73 ± 0.34.
Regarding KDVLRYGEEQLKTHKKCKEEVVST [FCHO1], the protein stability index (treatment: DMSO) was 4.85 ± 0.13 and the protein stability index (treatment: MLN4924 1 uM, 8 h) amounted to 4.78 ± 0.19.
The matching figures for KEAKTKYPNYEFISDNSISWSAGL [FUT8]: 2.52 ± 0.25 and 2.95 ± 0.23.
The like results for KEKEQENERKVAQLAEENERLKQE [DDIT3] were, in that order, 5.52 ± 0.1 and 5.55 ± 0.15.
The like results for KENPECPVLKRSSESMENINSGYE [KMT2E] were, in that order, 5.13 ± 0.2 and 5.01 ± 0.23.
With KERKKREERERKRRKEEEVQQQKL [FAF2], the protein stability index runs as follows: (treatment: DMSO) 5.09 ± 0.46; (treatment: MLN4924 1 uM, 8 h) 4.91 ± 0.31.
The matching figures for KESLETPSNGRIDIKQLIAKKIKL [SOAT1]: 2.55 ± 0.14 and 2.94 ± 0.27.
The matching figures for KFYPPDPAQLSEDITRYYLCLQLR [EPB41L3]: 2.49 ± 0.048 and 2.48 ± 0.87.
The matching figures for KIKAIMALVAAILLLVIIILIVMK [VAMP4]: 2.47 ± 0.51 and 2.41 ± 0.8.
For KKAIKDLGISPSTCSFNPGVIVAN [GLT8D2], the protein stability index amounted to 2.95 ± 0.11 (treatment: DMSO) and 2.87 ± 0.43 (treatment: MLN4924 1 uM, 8 h).
On to KKEESGRERKKNWGGQEDREPAGR [PBXIP1], for which the protein stability index by setting is: (treatment: DMSO) 5.16 ± 0.14; (treatment: MLN4924 1 uM, 8 h) 5.33 ± 0.26.
The matching figures for KKKEGGALRAQRASSNVFSNFEQT [MYL5]: 4.42 ± 0.45 and 4.47 ± 0.15.
The like results for KKLKKDDKKKELQELNELFKPVVA [ZC3H15] were, in that order, 4.18 ± 0.48 and 4.15 ± 0.34.
The like results for KKLRLVFKSLDKKNDGRIDAQEIM [SLC25A25] were, in that order, 2.57 ± 0.23 and 2.87 ± 0.31.
Take KLDTKYPYVCHAELNAIMNKNSTD [DCTD]: the protein stability index by setting is: (treatment: DMSO) 3.52 ± 0.18; (treatment: MLN4924 1 uM, 8 h) 3.42 ± 0.11.
The matching figures for KLNLCEDGPCHKRRASICCTQLGS [SCARA5]: 3.12 ± 0.2 and 3.3 ± 0.27.
The like results for KLPATMPEPVYFHCAAVTPAGCMY [KLHDC10] were, in that order, 2.27 ± 0.23 and 2.08 ± 0.19.
With KNGQGFALVYSITAQSTFNDLQDL [RAP1B], the protein stability index by setting is: (treatment: DMSO) 2.23 ± 0.42; (treatment: MLN4924 1 uM, 8 h) 2.17 ± 0.45.
The matching figures for KNNLSFIETSALDSTNVEEAFKNI [RAB11B]: 4.33 ± 0.2 and 4.33 ± 0.3.
Take KPKKKKEKKEKEKKKKDKEKEKEK [BRD3]: the protein stability index (treatment: DMSO) came out at 5.26 ± 0.097 and the protein stability index (treatment: MLN4924 1 uM, 8 h) came to 5.19 ± 0.14.
The like results for KQNARFLTSMRRLSSIKRDTNSIA [STX11] were, in that order, 3.12 ± 0.25 and 3.21 ± 0.2.
For the sequence KQNKTPLDKSTTGVSEILLKTQMK [FEM1B], the protein stability index worked out at 4.36 ± 0.15 (treatment: DMSO) and 4.2 ± 0.2 (treatment: MLN4924 1 uM, 8 h).
The matching figures for KQYKAVVYSNTIQSIIAIIRAMGR [GNAI1]: 1.95 ± 0.32 and 2.21 ± 0.052.
The sequence KREREKEDIALNKHRSRRKWCFWN [RHOBTB1] had a protein stability index (treatment: DMSO) of 2.65 ± 0.29 and a protein stability index (treatment: MLN4924 1 uM, 8 h) of 3.07 ± 0.51.
Turning to KRKRVDVEESEASSSVSISHSASA [LMNB1], the protein stability index came to 5.29 ± 0.29 (treatment: DMSO) and 5.42 ± 0.17 (treatment: MLN4924 1 uM, 8 h).
The like results for KRSWTSAQNACSEHGATLAVIDSE [CD69] were, in that order, 4.64 ± 0.076 and 4.67 ± 0.17.
Take KSHFQNSREWSGKEKWWDGQRDRK [PBXIP1]: the protein stability index (treatment: DMSO) turned out to be 3.67 ± 0.26 and the protein stability index (treatment: MLN4924 1 uM, 8 h) was determined as 3.98 ± 0.31.
The matching figures for KTIEDLRNKIIAATIENAQPILQI [KRT16]: 2.36 ± 0.25 and 2.33 ± 0.1.
The matching figures for KTLRVWDLKDDGNMMKVLRGHQNW [WSB1]: 2.66 ± 0.4 and 2.4 ± 0.42.
The like results for KTPLHQKHAAFVTPDQKYSMDNTP [MYBL2] were, in that order, 4.14 ± 0.38 and 4.23 ± 0.2.
The sequence KVEEEIVTLRQVLAAKERHCGELK [TPD52L2] came in with a protein stability index (treatment: DMSO) of 3.95 ± 0.3 and a protein stability index (treatment: MLN4924 1 uM, 8 h) of 4.21 ± 0.14.
KVKRSLRQARKKGRHLELANQKLS [CCDC3] registered a protein stability index (treatment: DMSO) of 4 ± 0.26 and a protein stability index (treatment: MLN4924 1 uM, 8 h) of 4.39 ± 0.45.
The like results for KVPESLVRSLRGEEPVPRERDRDP [LURAP1L] were, in that order, 5.28 ± 0.13 and 5.25 ± 0.33.
The like results for KVTGYLISYSSMLGAVAGLALGPI [MFSD9] were, in that order, 3.31 ± 0.48 and 2.96 ± 0.28.

The values are drawn from the supplement of paper PMC10567573.
